# Changes are numbered by the printed parent chain.
# B1: TM-86 (antibody, V domains shown)
# VH: EVQLQQSGPVLVKPGASVKMSCKASGYTFTDYYIHWVKQSHGRSLEWIGVISPYNDNTNYNQKFKGKATLTVDKSSSTAYMELNSLTSEDSAVYYCVRTYYSNYFDYWGQGTTLTVSS
# VL: DIVMTQSPSSLSVSAGEKVTMSCKSSQSLLNSGNQKNYLAWHQQRPGQPPKLLIYGASTRESGVPDRFTGSGSGTEFTLTISSVQAEDLAVYYCQNDHSYPLTFGAGTKLELK
# notes: Purified from mouse hybridoma
# B2: TM-94 (antibody, V domains shown)
# VH: EVQLQQSGPELVKPGASVKIPCKASGYTFTDYNMDWVKQSHGKSLEWIGDINPYNGGTLYNQKFKGKATLTVDKSSNTAYMEIRSLTYEDTAVYYCARVGYHGTPDYWGQGTTVTVSS
# VL: DVVMTQTPLSLPVSLGDQASISCRSSQSLVYSNGNTYLHWYLQRPGQSPKLLIYKVSNRFSGVPDRFSGSGSGTDFTLKISRVEAEDLGVYFCSQSTHVYTFGGGTKLEIK
# notes: Purified from mouse hybridoma
# B3: TM-93 (antibody, V domains shown)
# VH: QVQLKESGPGLVAPSQSLSITCTVSGFSLSSYGISWVRQPPGKGLEWLGVIWTGGGTNYNSALESRLSITKDNSKSQVFLKMNSLQTDDTARYYCARNPPKIFYDYLMYFDYWGQGTTVTVSS
# VL: DIVMTQSHKLMSTSVGDRVSITCKASQDVGSAVAWYQQKPGQSPQLLIYWSSTRLPGVPDRFTGSGSGTDFTLTISNVQSEVLADYFCQQYTSYPLTFGGGTKLEIK
# notes: Purified from mouse hybridoma
# B4: TM-85 (antibody, V domains shown)
# VH: QVQLQQPGAELVRAGTSVKLSCKASGYTFIGYWMHWVKQRPGRGLEWIGRIDPYSGDTRYNEKFKNKATLTVDKPSSTAYMQLSSLTSEDSAVYYCARYGLGHAMDYWGQGTSVTVSS
# VL: DIAMSQSQKFMSTSVGDRVSVTCKASQNVGTNVAWYQQKPGQSPKALIYSASYRYSGVPDRFTGSGSGTDFTLTISNVQSEDLAEYFCQQYNSYPLTFGAGTKLEMK
# notes: Purified from mouse hybridoma
# B5: TM-91 (antibody, V domains shown)
# VH: DVQLQESGPGLVKPSQSLSLTCSVTGYSITSGYYWDWIRQFPGNKLEWMGYISYDGNNNYNPSLKNRISITRDTSKNQFFLKLNSVTTEDTATYYCARAVYSVGFAYWGQGTLVTVSS
# VL: B4 VL with A3V, S5T, G30Y, A46P, A100G, M106I
# notes: Purified from mouse hybridoma
# B6: TM-84 (antibody, V domains shown)
# VH: QVQLQQSGAELVKPGASVKMSCKASGYTFTTFPIEWMKQNHGKSLEWIGNFHPYNDDTKYNEKFKGKATLTVEKSSSTVYLELSRLTSDDSAVYYCARYFYGGMDYWGQGTSVTVSS
# VL: DIQMTQSPASLSVSVGETVTITCRASENIYSSLGWYHQKQGKSPQLLVFAATNLADGVPSRFSGSGSGTQYSLKINSLQSEDFGTYYCQHLWSVPWTFGGGTKLEIK
# notes: Purified from mouse hybridoma
# B7: TM-88 (antibody, V domains shown)
# VH: EAQLQQSGPVLVKPGASVKMSCKTSGYTFTDYYINWVKQSHGKSLEWIGVINPYSGATYYTQKFKGKATLTVDKSSSTAYMELNSQTSEDSAVYYCARGGYDYGHWYFDVWGTGTTVTVSS
# VL: ETTVTQSPASLSMAIGEKVTIRCITSSDIDDHMNWYRQKPGEPPEFLISEGNALRPGVPSRFSSSGYGTDFIFTIENILSEDVADYYCLQSDNLPLTFGAGTKLELK
# notes: Purified from mouse hybridoma
# B8: TM-87 (antibody, V domains shown)
# VH: EVQLQQSGPVLVKPGASVKLSCKASGYTFTDYYMNWVKQSHGKSLEWIGVINPYNGATSYNQKFQDKATLTVDKSSSTAYMGLNSLTSEDSAVYYCANGNYDWYFDVWGTGTTVTVSS
# VL: DVQITQSPSYLAASPGETITINCRASRSISKYLAWYQEKPGKTNKLLIYSGSTLQSGIPSRFSGSGSGTDFTLTISSLEPEDFAVYYCQQHNEYPLTFGAGTKLELK
# notes: Purified from mouse hybridoma
# B9: TM-92 (antibody, V domains shown)
# VH: EVQLQQSGPELVKPGASVKIPCKASGYTFTDYTMDWVKQSPGKSLEWIGHINPNDGGTFYNQKFKGKATLTVDKSSSTAYMELRSLTSEDSAVYYCARWVYYYGISYEGGAMDYWGQGTSVTVSS
# VL: B8 VL with R27K, V85M, L96W, A100G, L106I
# notes: Purified from mouse hybridoma
# Molecular target: T1, cynomolgus (cyno) TMEM106B (cynomolgus, UniProt Q9NUM4 2-274 (human entry))
# T1 construct: Full-length cDNA transiently transfected into HEK293 cells
# Assay: flow cytometry, HEK293 cells transiently transfected with cyno TMEM106B
# Description: (§1) For screening of the hybridoma cell culture supernatants, humanTMEM106B-transfected HEK293 cells were aliquoted in 96-well round bottom plates (2×10⁵ cells per well) and incubated with 50 μL of hybridoma cell culture supernatant on ice for 30 minutes. […] Cell sorting was performed on a FACS Canto system (BD Biosciences) or iQue (Intellicyt), with sort gates drawn to exclude dead (i.e., propidium iodide-positive) cells. Median fluorescence intensity (MFI) of anti-mouse-APC MFI on TMEM106B+ HEK293 cells was calculated for each clone, and those displaying a signal of at least 2-fold over background compared to a secondary-antibody only well were taken forward for further analysis and characterization.
row,fold-change in binding over parental HEK293 cells,Binder
1,5.81 fold,B1
2,6.1 fold,B2
3,9.21 fold,B3
4,0.18 fold,B4
5,2.45 fold,B5
6,8.43 fold,B6
7,7.57 fold,B7
8,7.21 fold,B8
9,5.7 fold,B9

# Molecular target: T2, human TMEM106B (human, UniProt Q9NUM4 2-274)
# T2 construct: Full-length cDNA transiently transfected into HEK293 cells; also called huTMEM106B
# Assay: flow cytometry, HEK293 cells transiently transfected with human TMEM106B
# Description: as §1
row,fold-change in binding over parental HEK293 cells,Binder
1,9.73 fold,B1
2,3.79 fold,B2
3,11.5 fold,B3
4,0.26 fold,B4
5,5.22 fold,B5
6,17.1 fold,B6
7,7.81 fold,B7
8,12.8 fold,B8
9,9.14 fold,B9

# Molecular target: T3, mouse TMEM106B (mouse, UniProt Q80X71 2-275)
# T3 construct: Full-length cDNA transiently transfected into HEK293 cells; also called muTMEM106B; murine TMEM106B
# Assay: flow cytometry, HEK293 cells transiently transfected with murine TMEM106B
# Description: as §1
row,fold-change in binding over parental HEK293 cells,Binder
1,5.78 fold,B1
2,2.35 fold,B2
3,8.83 fold,B3
4,0.19 fold,B4
5,2.41 fold,B5
6,9.62 fold,B6
7,5.84 fold,B7
8,27 fold,B8
9,5.15 fold,B9
